Assay results reported in the supplement of paper PMC9112550, “Optimization of the antimicrobial peptide Bac7 by deep mutational scanning” (BMC Biology, 2022).

Tested on: Escherichia coli TOP10
Experiment: shrunken log2 fold change of peptide-encoding DNA abundance (4.5 h post-induction vs induction); higher = less antimicrobial activity (less host growth inhibition)
Settings: time post-induction: 4.5 h; library: site-saturation at positions 5, 18, 19, 20
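Also: peptides expressed intracellularly from a pBAD plasmid library in pooled LB shake-flask culture, induced with 0.3% L-arabinose, DNA abundance read by NGS, three biological replicates, DESeq2 with apeglm shrinkage.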

Row | Sequence | shrunken log2 fold change
1 | RRIRMRPPRLPRPRPRPFITPRP | -0.456
2 | RRIRARPPRLPRPRPRPNSPPRP | -0.138
3 | RRIRERPPRLPRPRPRPCKLPRP | -0.187
4 | RRIRGRPPRLPRPRPRPVTDPRP | 0.394
5 | RRIRCRPPRLPRPRPRPFAQPRP | 0.00363
6 | RRIRTRPPRLPRPRPRPFMKPRP | -0.661
7 | RRIRTRPPRLPRPRPRPYGCPRP | -0.00664
8 | RRIRTRPPRLPRPRPRPKPAPRP | 0.0421
9 | RRIRGRPPRLPRPRPRPEWQPRP | 0.783
10 | RRIRFRPPRLPRPRPRPETPPRP | 0.752
11 | RRIRPRPPRLPRPRPRPWFPPRP | -0.215
12 | RRIRYRPPRLPRPRPRPSYYPRP | -1.66
13 | RRIRFRPPRLPRPRPRPLDCPRP | -0.112
14 | RRIRVRPPRLPRPRPRPVEQPRP | -0.0734
15 | RRIRIRPPRLPRPRPRPQSIPRP | -0.0763
16 | RRIRERPPRLPRPRPRPWKHPRP | -0.176
17 | RRIRKRPPRLPRPRPRPCFDPRP | 0.0357
18 | RRIRCRPPRLPRPRPRPMMVPRP | -0.659
19 | RRIRQRPPRLPRPRPRPWNHPRP | -0.0081
20 | RRIRSRPPRLPRPRPRPNTSPRP | -0.242
21 | RRIRYRPPRLPRPRPRPNPGPRP | -0.000104
22 | RRIRNRPPRLPRPRPRPCWEPRP | -0.0598
23 | RRIRKRPPRLPRPRPRPPWEPRP | 1.23
24 | RRIRARPPRLPRPRPRPTATPRP | 1.2
25 | RRIRRRPPRLPRPRPRPNRHPRP | -0.00811

Row | Sequence | shrunken log2 fold change
26 | RRIRKRPPRLPRPRPRPHAAPRP | -0.0457
27 | RRIRGRPPRLPRPRPRPHVSPRP | 0.396
28 | RRIRLRPPRLPRPRPRPQVFPRP | 0.502
29 | RRIRGRPPRLPRPRPRPCVPPRP | 0.307
30 | RRIRARPPRLPRPRPRPYGLPRP | 0.0316
31 | RRIRFRPPRLPRPRPRPHGDPRP | 0.0644
32 | RRIRIRPPRLPRPRPRPALNPRP | -0.484
33 | RRIRNRPPRLPRPRPRPQTHPRP | -0.217
34 | RRIRKRPPRLPRPRPRPNHKPRP | -0.203
35 | RRIRLRPPRLPRPRPRPNFTPRP | -0.501
36 | RRIRMRPPRLPRPRPRPINTPRP | -0.387
37 | RRIRCRPPRLPRPRPRPKAEPRP | 0.173
38 | RRIRHRPPRLPRPRPRPGHGPRP | 0.0264
39 | RRIRRRPPRLPRPRPRPSSKPRP | -0.145
40 | RRIRNRPPRLPRPRPRPHNQPRP | -0.7
41 | RRIRQRPPRLPRPRPRPAYGPRP | -0.341
42 | RRIRNRPPRLPRPRPRPHETPRP | -0.127
43 | RRIRWRPPRLPRPRPRPTCAPRP | 0.868
44 | RRIRIRPPRLPRPRPRPAHQPRP | -0.0564
45 | RRIRQRPPRLPRPRPRPICDPRP | -0.0181
46 | RRIRGRPPRLPRPRPRPFDGPRP | 0.366
47 | RRIRIRPPRLPRPRPRPHMGPRP | -1.08
48 | RRIRERPPRLPRPRPRPGCVPRP | 0.118
49 | RRIRIRPPRLPRPRPRPRDYPRP | -0.14
50 | RRIRERPPRLPRPRPRPFTEPRP | -0.184

Row | Sequence | shrunken log2 fold change
51 | RRIRARPPRLPRPRPRPRGKPRP | 0.376
52 | RRIRDRPPRLPRPRPRPLCLPRP | 0.0562
53 | RRIRSRPPRLPRPRPRPQGTPRP | 0.0846
54 | RRIRGRPPRLPRPRPRPVAEPRP | 1.38
55 | RRIRERPPRLPRPRPRPVPFPRP | -0.229
56 | RRIRHRPPRLPRPRPRPANNPRP | -0.613
57 | RRIRERPPRLPRPRPRPVMAPRP | -0.0537
58 | RRIRSRPPRLPRPRPRPDMKPRP | -0.43
59 | RRIRTRPPRLPRPRPRPLKYPRP | -0.641
60 | RRIRYRPPRLPRPRPRPEWKPRP | -0.000687
61 | RRIRNRPPRLPRPRPRPRCYPRP | -0.0588
62 | RRIRWRPPRLPRPRPRPPSTPRP | 0.402
63 | RRIRGRPPRLPRPRPRPRGMPRP | 0.939
64 | RRIRMRPPRLPRPRPRPTLYPRP | 0.16
65 | RRIRERPPRLPRPRPRPDVVPRP | 0.015
66 | RRIRCRPPRLPRPRPRPGTGPRP | 0.119
67 | RRIRFRPPRLPRPRPRPAIDPRP | -0.00326
68 | RRIRTRPPRLPRPRPRPRFEPRP | 0.0138
69 | RRIRERPPRLPRPRPRPGHYPRP | -0.121
70 | RRIRCRPPRLPRPRPRPMCLPRP | -0.201
71 | RRIRLRPPRLPRPRPRPELCPRP | 0.173
72 | RRIRWRPPRLPRPRPRPCIGPRP | -0.148
73 | RRIRARPPRLPRPRPRPIMDPRP | -0.0229
74 | RRIRDRPPRLPRPRPRPKTWPRP | 0.434
75 | RRIRGRPPRLPRPRPRPYVMPRP | -0.0513

Row | Sequence | shrunken log2 fold change
76 | RRIRPRPPRLPRPRPRPCCVPRP | 0.182
77 | RRIRVRPPRLPRPRPRPETQPRP | 0.259
78 | RRIRARPPRLPRPRPRPISTPRP | -0.295
79 | RRIRMRPPRLPRPRPRPMLMPRP | 0.0323
80 | RRIRHRPPRLPRPRPRPSLHPRP | -0.652
81 | RRIRKRPPRLPRPRPRPKKWPRP | 0.406
82 | RRIRPRPPRLPRPRPRPCPVPRP | -0.0845
83 | RRIRVRPPRLPRPRPRPMFDPRP | -0.338
84 | RRIRNRPPRLPRPRPRPGRGPRP | 0.918
85 | RRIRDRPPRLPRPRPRPKGRPRP | 0.218
86 | RRIRYRPPRLPRPRPRPTAEPRP | 0.0226
87 | RRIRIRPPRLPRPRPRPSMCPRP | -1.33
88 | RRIRSRPPRLPRPRPRPWASPRP | -0.114
89 | RRIRARPPRLPRPRPRPAMSPRP | 0.43
90 | RRIRRRPPRLPRPRPRPHSPPRP | 0.252
91 | RRIRERPPRLPRPRPRPRWVPRP | -0.0454
92 | RRIRCRPPRLPRPRPRPDQHPRP | 0.0432
93 | RRIRKRPPRLPRPRPRPNWKPRP | 0.363
94 | RRIRSRPPRLPRPRPRPWQHPRP | 0.14
95 | RRIRFRPPRLPRPRPRPNQHPRP | -0.275
96 | RRIRMRPPRLPRPRPRPSFYPRP | -0.29
97 | RRIRWRPPRLPRPRPRPCPVPRP | -0.249
98 | RRIRGRPPRLPRPRPRPHLMPRP | -0.0148
99 | RRIRPRPPRLPRPRPRPYMAPRP | -1.07
100 | RRIRCRPPRLPRPRPRPANKPRP | 0.361

Row | Sequence | shrunken log2 fold change
101 | RRIRYRPPRLPRPRPRPIEEPRP | 0.00911
102 | RRIRPRPPRLPRPRPRPHNHPRP | -0.609
103 | RRIRLRPPRLPRPRPRPSPEPRP | 0.00229
104 | RRIRQRPPRLPRPRPRPNDGPRP | -0.000777
105 | RRIRIRPPRLPRPRPRPAKAPRP | -0.00404
106 | RRIRYRPPRLPRPRPRPGGEPRP | 0.173
107 | RRIRDRPPRLPRPRPRPDQYPRP | 0.00642
108 | RRIRDRPPRLPRPRPRPICRPRP | 0.266
109 | RRIRSRPPRLPRPRPRPWFIPRP | -0.311
110 | RRIRARPPRLPRPRPRPLQMPRP | 0.629
111 | RRIRYRPPRLPRPRPRPLYNPRP | -1.11
112 | RRIRKRPPRLPRPRPRPTYHPRP | -0.283
113 | RRIRERPPRLPRPRPRPEGTPRP | -0.0267
114 | RRIRQRPPRLPRPRPRPQGSPRP | 0.0165
115 | RRIRFRPPRLPRPRPRPACPPRP | 0.12
116 | RRIRFRPPRLPRPRPRPQTMPRP | -0.144
117 | RRIRRRPPRLPRPRPRPCEHPRP | -0.212
118 | RRIRYRPPRLPRPRPRPVLSPRP | -0.311
119 | RRIRPRPPRLPRPRPRPTQNPRP | 0.534
120 | RRIRTRPPRLPRPRPRPHDQPRP | 0.0187
121 | RRIRKRPPRLPRPRPRPVDHPRP | 0.147
122 | RRIRIRPPRLPRPRPRPHEGPRP | -0.0113
123 | RRIRQRPPRLPRPRPRPLRNPRP | 0.121
124 | RRIRGRPPRLPRPRPRPGHFPRP | -0.0383
125 | RRIRHRPPRLPRPRPRPERNPRP | 0.036

Row | Sequence | shrunken log2 fold change
126 | RRIRLRPPRLPRPRPRPGMDPRP | 0.126
127 | RRIRNRPPRLPRPRPRPYELPRP | -0.0122
128 | RRIRLRPPRLPRPRPRPESLPRP | 0.157
129 | RRIRCRPPRLPRPRPRPSQEPRP | 0.0585
130 | RRIRMRPPRLPRPRPRPMFDPRP | -0.328
131 | RRIRGRPPRLPRPRPRPVQIPRP | 0.335
132 | RRIRYRPPRLPRPRPRPSYGPRP | -0.383
133 | RRIRKRPPRLPRPRPRPKQSPRP | 0.525
134 | RRIRKRPPRLPRPRPRPVCDPRP | 0.683
135 | RRIRLRPPRLPRPRPRPWTLPRP | 0.00677
136 | RRIRPRPPRLPRPRPRPTMMPRP | -0.216
137 | RRIRSRPPRLPRPRPRPKVRPRP | 0.0559
138 | RRIRERPPRLPRPRPRPHQLPRP | 0.0377
139 | RRIRPRPPRLPRPRPRPPQEPRP | 0.727
140 | RRIRWRPPRLPRPRPRPHHKPRP | -0.23
141 | RRIRVRPPRLPRPRPRPHFVPRP | -0.0262
142 | RRIRERPPRLPRPRPRPTPQPRP | 0.246
143 | RRIRIRPPRLPRPRPRPYCIPRP | -0.224
144 | RRIRQRPPRLPRPRPRPVSWPRP | 1.47
145 | RRIRYRPPRLPRPRPRPSVVPRP | -0.844
146 | RRIRYRPPRLPRPRPRPDCNPRP | -0.871
147 | RRIRGRPPRLPRPRPRPTHQPRP | 0.615
148 | RRIRSRPPRLPRPRPRPIALPRP | -0.385
149 | RRIRGRPPRLPRPRPRPYVCPRP | -0.00206
150 | RRIRFRPPRLPRPRPRPSIPPRP | -0.602
